The numbers were not newly measured in PMC8277102, which cites them from elsewhere.

What is called Kd is the constant that tells how readily two partners part at equilibrium.

For the data set, the target named is EmrA (Escherichia coli) (UniProt P27303). Description: SPR. A general note: In SPR one partner is held on a chip, and binding of the other changes the refractive index at the surface.

As to EmrA (from UniProt P27303), the Kd was 1870 nM.
